This data set deals with the molecule itself. The data set is described as follows: cross-linking.

As a reminder, the stoichiometry N is a count of units in the complex or per binding partner.

B1: mouse Kcc1 K-Cl cotransporter (natural protein, UniProt Q9JIS8 1-1085, looked up)
chain: MPHFTVVPVDGPRRGDYDNLEGLSWVDYGERAEREDSDGQGNHRENSPFLCPLDASRGNDYYDRNLALFEEELDIRPKVSSLLGKLVSYTNLTQGAKEHEEAESGEGGRRRAAKAPSMGTLMGVYLPCLQNIFGVILFLRLTWMVGTAGVLQALLIVLICCCCTLLTAISMSAIATNGVVPAGGSYFMISRSLGPEFGGAVGLCFYLGTTFAAAMYILGAIEILLTYIAPPAAIFYPSGTHDMSSATLNNMRVYGTIFLTLMTLVVFVGVKYVNKFASLFLACVIISILSIYAGGIKSIFDPPVFPVCMLGNRTLSRDQFDICAKTVVVDNETVATRLWTFFCHSPNLTADSCDPYFLLNNVTEIPGIPGAAAGVLQENLWSAYLEKGEVVEKHGLPSTDTLGLKESLSLYVVADIATSFTVLVGIFFPSVTGIMAGSNRSGDLRDAQKSIPVGTILAIVTTSLVYFSSVILFGACIEGVVLRDKYGDGVSRNLVVGTLAWPSPWVIVVGSFFSTCGAGLQSLTGAPRLLQAIAKDNIIPFLRVFGHGKANGEPTWALLLTALIAELGILIASLDMVAPILSMFFLMCYLFVNLACAVQTLLRTPNWRPRFKYYHWTLSFLGMSLCLALMFVSSWYYALVAMLIAGMIYKYIEYQGAEKEWGDGIRGLSLSAARYALLRLEEGPPHTKNWRPQLLVLLKLDEDLHVKYPRLLTFASQLKAGKGLTIVGSVIQGSFLESYGEAQAAEQTIKNMMDIEKVKGFCQVVVASKVREGLAHLIQSCGLGGMRHNSVVLGWPYGWRQSEDPRAWKTFIDTVRCTTAAHLALLVPKNIAFYPSNHERYLDGHIDVWWIVHDGGMLMLLPFLLRQHKVWKKCRMRIFTVAQMDDNSIQMKKDLAIFLYHLRLEAEVEVVEMHNSDISAYTYERTLMMEQRSQMLRQMRLTKTERDREAQLVKDRHSALRLESLYSDEEEESVAGADKIQMTWTRDKYMAEPWDPSHAPDNFRELVHIKPDQSNVRRMHTAVKLNEVIVTRSHDARLVLLNMPGPPKNSEGDENYMEFLEVLTEGLERVLLVRGGGREVITIYS
In the case of B1, the “stoichiometry N” value was roughly 2.
